Laboratory results from patent US20130158238A1 (THERACLONE SCIENCES, published 2013).
Where two headings read alike, the source gives them in different places.

B1: 8i10 (antibody, V domains shown)
VH: QVQLQESGPGLVKPSETLSLTCTVSGSSISNYYWSWIRQSPGKGLEWIGFIYYGGNTKYNPSLKSRVTISQDTSKSQVSLTMSSVTAAESAVYFCARASCSGGYCILDYWGQGTLVTVS
VL: DIQMTQSPSSLSASVGDRVTITCRASQNIYKYLNWYQQRPGKAPKGLISAASGLQSGVPSRFSGSGSGTDFTLTITSLQPEDFATYYCQQSYSPPLTFGGGTRVEIK
B2: 23K12 (antibody, V domains shown)
VH: EVQLVESGGGLVQPGGSLRISCAASGFTVSSNYMSWVRQAPGKGLEWVSVIYSGGSTYYADSVKGRFSFSRDNSKNTVFLQMNSLRAEDTAVYYCARCLSRMRGYGLDVWGQGTTVTVS
VL: DIQMTQSPSSLSASVGDRVTITCRTSQSISSYLNWYQQKPGKAPKLLIYAASSLQSGVPSRFSGSGSGTDFTLTISGLQPEDFATYYCQQSYSMPAFGQGTKLEIK

Experiments:
[1] = target: M2 protein of A/Puerto Rico/8/34 (H1N1), on cells (Influenza A virus A/Puerto Rico/8/34 (H1N1)) (UniProt P06821); test: flow cytometry on MDCK cells infected with A/Puerto Rico/8/34
[2] = target: M2e peptide … (23mer synthetic peptide of M2 derived from A/Fort Worth/1/50) (Influenza A virus A/Fort Worth/1/50 (H1N1)); test: ELISA, peptide coated at 1 µg/ml
[3] = target: M2e peptide … (23mer synthetic peptide of M2 derived from A/Fort Worth/1/50) (Influenza A virus A/Fort Worth/1/50 (H1N1)); test: ELISA, peptide 2 µg/mL, mAb 5 µg/mL
M2e = test: ELISA, peptide 2 µg/mL, mAb 5 µg/mL
[4] = target: T1, A.X-31 Vaccine strain H3N2; test: FACS, transfected HEK293, mAb 1 µg/ml [D00006 FIG. 3C-1]
T1 M2: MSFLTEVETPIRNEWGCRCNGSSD

A.Caracas.1.71.H3N2 = target: T2, A.Caracas.1.71.H3N2; test: as above
T2 M2: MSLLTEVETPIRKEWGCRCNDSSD

A.Hong Kong.1.68.H3N2 = target: T3, A.Hong Kong.1.68.H3N2; test: as above
T3 M2: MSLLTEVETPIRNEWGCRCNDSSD

[5] = target: M2e peptide … (23mer synthetic peptide of M2 derived from A/Fort Worth/1/50) (Influenza A virus A/Fort Worth/1/50 (H1N1)); test: ELISA, peptide 2 µg/mL, mAb 5 µg/mL; remark: listed apart in the source
M16 = test: ELISA, peptide 2 µg/mL, mAb 5 µg/mL
M15 = test: ELISA, peptide 2 µg/mL, mAb 5 µg/mL
NM15 = test: ELISA, peptide 2 µg/mL, mAb 5 µg/mL
NM17 = test: ELISA, peptide 2 µg/mL, mAb 5 µg/mL
A.Hong Kong.1144.99.H3N2 = target: T4, A.Hong Kong.1144.99.H3N2; test: FACS, transfected HEK293 [D00006 FIG. 3C-1]
T4 M2: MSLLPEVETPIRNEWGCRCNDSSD

A.Hong Kong.1180.99 H3N2 = target: T5, A.Hong Kong.1180.99 H3N2; test: FACS, transfected HEK293 [D00006 FIG. 3C-1]
T5 M2: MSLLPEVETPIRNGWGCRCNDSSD

| Molecule | EC50 (read off the curve) [1] | EC50 [2] | binding activity (ELISA A450) [3] | binding activity (ELISA A450) (M2e) | binding result [4] | binding result (A.Caracas.1.71.H3N2) | binding result (A.Hong Kong.1.68.H3N2) | binding activity (ELISA A450) [5] | binding activity (ELISA A450) (M16) | binding activity (ELISA A450) (M15) | binding activity (ELISA A450) (NM15) | binding activity (ELISA A450) (NM17) | binding result (A.Hong Kong.1144.99.H3N2) | binding result (A.Hong Kong.1180.99 H3N2) |
| --- | --- | --- | --- | --- | --- | --- | --- | --- | --- | --- | --- | --- | --- | --- |
| 14C2 (chimeric mouse V-region/human IgG1 kappa 14C2 antibody) | 0.3 µg/mL | 0.01 µg/mL | 3.85 | 3.98 |  |  |  |  |  |  |  |  |  |  |
| B1 |  |  |  |  | binds | binds |  |  |  |  |  |  |  |  |
| B2 |  |  |  |  | binds | binds | binds | 0.22 | 0.21 | 0.21 | 0.3 | 0.58 | no binding (tested: 1 µg/ml) | no binding (tested: 1 µg/ml) |
